Test results: paper PMC8060482, “Identification of an Invertase With High Specific Activity for Raffinose Hydrolysis and Its Application in Soymilk Treatment” (Frontiers in Microbiology, 2021)

How the values were obtained:
Experiment in all cases: released glucose by glucose oxidase method; Michaelis-Menten fit
Format in all cases: biochemical, Microbacterium trichothecenolyticum
[1] = substrate: OC[C@H]1O[C@H](OC[C@H]2O[C@H](O[C@]3(CO)O[C@H](CO)[C@@H](O)[C@@H]3O)[C@H](O)[C@@H](O)[C@@H]2O)[C@H](O)[C@@H](O)[C@H]1O; details: 50 mM citrate-phosphate pH 6.5, 35 °C, 5 min
[2] = substrate: OC[C@H]1O[C@H](OC[C@H]2O[C@H](OC[C@H]3O[C@H](O[C@]4(CO)O[C@H](CO)[C@@H](O)[C@@H]4O)[C@H](O)[C@@H](O)[C@@H]3O)[C@H](O)[C@@H](O)[C@H]2O)[C@H](O)[C@@H](O)[C@H]1O; details: 50 mM citrate-phosphate pH 6.5, 35 °C, 5 min
[3] = substrate: OC[C@H]1O[C@@](CO)(O[C@H]2O[C@H](CO)[C@@H](O)[C@H](O)[C@H]2O)[C@@H](O)[C@@H]1O; details: 50 mM citrate-phosphate pH 6.5, 35 °C, 5 min, enzyme printed as rInvDz13

B1: InvDz13 (Microbacterium trichothecenolyticum) (protein)
chain: APVAPAAPELQDGPQPTAHTQQAYAPEDDFTAKWTRADARQLKRLSDPTAGSKQNSMPTELTMPAVAQDFPDMSNEQVWVWDSWPLTDENANQYSVNGQEIIFSLVADRNLVFDERHVFAKIGYFYRPAGVPADERPENGGWTYGGLVFDEGVTGKIFPDQSYSHQTQWSGSARISKGGQIKLFFTDVAFYRNEDGSNRKPYDPRIALSVGKVHANKNGVKLTGFDKVTDLLQADGTYYQTGAQNEFFNFRDPFTFEDPAHPGETYMVFEGNSAMPRETATCNEEDLGYREGDPFAESVEQVNASGATYQIGNVGLAKAKNKDLTEWEFLPPLLSANCVTDQTERPQIYMKDGKYYLFTISHRGTFANGIDGPEGVYGFVGDGIRSDYQPMNSGSGLALGNPTNLNFAGGQPFAPDFNQPIGHFQAYSHYVMPGGLVQSFIDTVGTEGDFRRGGTLAPTVKIDIDGASSAVDYAYGDGGLGGYADIPANINVNPGGKVTPLP
notes: natively purified from culture supernatant of strain Dz13 (DEAE-Sepharose, Sephacryl S100); precursor 537 aa, predicted signal peptide 1-35 (secreted enzyme); kinetics of sucrose printed once as rInvDz13, but no recombinant expression described
Km [1]: 14.2 ± 0.7 mM | kcat [1]: 3944 ± 15.3 s^–1 | Km [2]: 65.2 ± 3.07 mM | kcat [2]: 2368.3 ± 7.1 s^–1 | Km [3]: 4.5 ± 0.2 mM | kcat [3]: 504 ± 0.1 s^–1
